Laboratory results: publication doi:10.1101/634550

Target: GFP-WRI1(58-240), WRINKLED1 DNA-binding domain (UniProt Q6X5Y6 58-240)
Assay: MST

GFP-WRI1(58-240), WRINKLED1 DNA-binding domain, sequence (Q6X5Y6 58-240): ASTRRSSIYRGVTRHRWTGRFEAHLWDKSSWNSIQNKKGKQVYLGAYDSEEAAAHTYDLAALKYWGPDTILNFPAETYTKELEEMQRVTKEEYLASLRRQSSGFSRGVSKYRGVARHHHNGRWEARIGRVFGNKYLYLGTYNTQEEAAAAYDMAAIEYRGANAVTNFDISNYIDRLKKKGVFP

B1: BCCP2 AW box2 (-143/-115) (dsDNA)
DNA 1: CCTACTTCCTCGGTTTCATCGTCCACTG
DNA 2: CAGTGGACGATGAAACCGAGGAAGTAGG
Work on B1 yielded a Kd of 6.68 ± 0.94 nM.

B2: Neg.C (dsDNA)
DNA 1: TGTTACAATCTAGTTACTATTCAGGGTA
DNA 2: TACCCTGAATAGTAACTAGATTGTAACA
B2: no binding.

B3: BADC3m3 (dsDNA)
DNA 1: GTTGTGTCCTCGTTTACATCGTTATCGT
DNA 2: ACGATAACGATGTAAACGAGGACACAAC
With B3 the Kd was 22.9 ± 2.94 nM.

B4: BADC2 AW box (-102/-75) (dsDNA)
DNA 1: TCGTCTTCCTCGTTCGTATCGTTCACTC
DNA 2: GAGTGAACGATACGAACGAGGAAGACGA
In the case of B4, the Kd is reported as 2.73 ± 0.72 nM.

B5: BADC2m3 (dsDNA)
DNA 1: TCGTCTTCCTCGTTCACATCGTTCACTC
DNA 2: GAGTGAACGATGTGAACGAGGAAGACGA
B5 was tested, and the Kd was 149 ± 139 nM.

B6: BADC3 AW box (-94/-67) (dsDNA)
DNA 1: GTTGTGTCCTCGTTCATATCGTTATCGT
DNA 2: ACGATAACGATATGAACGAGGACACAAC
Binder B6 has a Kd of 5.24 ± 2.59 nM.

B7: BADC1m3 (dsDNA)
DNA 1: CCTTCTTCTTTGGTGCCTCCGTCCGCCG
DNA 2: CGGCGGACGGAGGCACCAAAGAAGAAGG
Binder B7 has a Kd of 70.7 ± 27.8 nM.

B8: BCCP2 AW box1 (-36/-8) (dsDNA)
DNA 1: TGGGTTTCTTCGTAAGCATCGAAATCAG
DNA 2: CTGATTTCGATGCTTACGAAGAAACCCA
For B8, the Kd was 0.65 ± 0.39 nM.

B9: BCCP1 AW box (-67/-40) (dsDNA)
DNA 1: TTGTGCTCTTTGGTTTCATCGAGAGAGA
DNA 2: TCTCTCTCGATGAAACCAAAGAGCACAA
Work on B9 yielded a Kd of 23.9 ± 4.42 nM.

B10: BADC1 AW box (-169/-142) (dsDNA)
DNA 1: CCTTCTTCTTTGGTAACTCCGTCCGCCG
DNA 2: CGGCGGACGGAGTTACCAAAGAAGAAGG
In the case of B10, the Kd is reported as 0.27 ± 0.27 nM.
